# Assay results from paper PMC3472128 (Structure (London, England : 1993), 2012).
# Residue numbers refer to the chain shown, from its start. Numbers in names are those of the source. Where “and” joins values, the source holds several entries; their conditions need not be identical. Equal values may be shown once.
# T1: Smad7 PY peptide Ac-ELESPPPPYSRYPMD-NH2 (203-217) (human)
# T1 peptide: Ac-ELESPPPPYSRYPMD-NH2
# B1: Smurf1 WW1-WW2 pair (domain or fragment)
# chain: SPELPEGYEQRTTVQGQVYFLHTQTGVSTWHDPRIPRDLNSVNCDELGPLPPGWEVRSTVSGRIYFVDHNNRTTQFTDPRLH
# B2: Smurf2 WW2-WW3 pair (domain or fragment)
# chain: PPDLPEGYEQRTTQQGQVYFLHTQTGVSTWHDPRVPRDLSNINCEELGPLPPGWEIRNTATGRVYFVDHNNRTTQFTDPRLSAN
# B3: Nedd4L WW2 domain Lys378/Arg380 to Glu (domain or fragment)
# chain: not shown
# B4: Nedd4L WW2 domain Arg380Glu (domain or fragment)
# chain: not shown
# B5: Nedd4L WW2 domain Lys378Glu (domain or fragment)
# chain: not shown
# B6: Smurf1 WW1-WW2 pair Gln247 and Gln249 to Glu (domain or fragment)
# chain: B1 chain with Q15E, Q17E
# B7: Smurf1 WW1-WW2 pair Arg243Glu (domain or fragment)
# chain: B1 chain with R11E
# B8: Smurf1 WW1-WW2 pair Arg243Ala (domain or fragment)
# chain: B1 chain with R11A
# B9: Smurf1 WW1-WW2 pair Gln249Glu (domain or fragment)
# chain: B1 chain with Q17E
# B10: Nedd4L WW1 domain (domain or fragment)
# chain: not shown
# B11: Smurf2 WW3 domain (297-333) (domain or fragment)
# chain: not shown
# B12: Nedd4L WW1-WW2 pair (domain or fragment)
# chain: not shown
# B13: YAP WW1-WW2 pair (domain or fragment)
# chain: SSFEIPDDVPLPAGWEMAKTSSGQRYFLNHIDQTTTWQDPRKAMLSQMNVTAPTSPPVQQNMMNSASGPLPDGWEQAMTQDGEIYYINHKNKTTSWLDPRLDPR
# B14: Nedd4L WW2 domain (364-403) (domain or fragment)
# chain: not shown
# B15: Nedd4L WW3-WW4 pair (domain or fragment)
# chain: SFLPPGWEMRIAPNGRPFFIDHNTKTTTWEDPRLKFPVHMRSKTSLNPNDLGPLPPGWEERIHLDGRTFYIDHNSKITQWEDPRL
# B16: Nedd4L WW2-WW3 pair (domain or fragment)
# chain: TPGLPSGWEERKDAKGRTYYVNHNNRTTTWTRPIMQLAEDGASGSATNSNNHLIEPQIRRPRSLSSPTVTLSAPLEGAKDSPVRRAVKDTLSNPQSPQPSPYNSPKPQHKVTQSFLPPGWEMRIAPNGRPFFIDHNTKTTTWEDPRL
# Target: T1, Smad7 PY peptide Ac-ELESPPPPYSRYPMD-NH2 …
# Assay: ITC
row,Kd [µM],Binder
1,0.7 ± 0.3,B1
2,0.7 ± 0.3,B2

# Target: T1, Smad7 PY peptide Ac-ELESPPPPYSRYPMD-NH2 …
# Assay: ITC
# Remark: another data set of the same source
row,Kd [µM],Binder
1,5 ± 0.3,B1
2,5 ± 0.3,B2

# Target: T1, Smad7 PY peptide Ac-ELESPPPPYSRYPMD-NH2 …
# Assay: ITC
# Remark: another data set of the same source
Kd [µM],fold reduction of affinity against the wild-type WW1-WW2 pair [fold],fold improvement of affinity against wild-type YAP WW2 [fold],fold reduction of affinity against wild-type YAP WW1 [fold],Binder
34.2 ± 1.6,–,–,–,"GPLPPGWEIRNTATGEVYFVDHNNRTTQFTDPRLSAN (domain or fragment, human, UniProt Q9HAU4 297-333, looked up) [Smurf2 WW3 domain R312E]"
48.6 ± 6.4,–,–,–,"DELGPLPPGWEVRSTVSGEIYFVDHNNRTTQFTDPRLH (domain or fragment, human, UniProt Q9HCE7-2 277-314, looked up) [Smurf1 WW2 domain Arg295Glu]"
27.3 ± 2.2,–,–,–,B3
15.4 ± 3.5,–,–,–,B4
23.5 ± 1.5,–,–,–,B5
–,3,–,–,B6
–,10,–,–,B7
–,3,–,–,B8
–,3,–,–,B9
–,–,2,–,"SASGPLPDGWEQAMTQQGQIYYINHKNKTTSWLDPRLDPR (domain or fragment, human, UniProt P46937 227-266, looked up) [YAP WW2 domain Asp243 and Glu245 to Glutamine]"
–,–,–,2,"SSFEIPDDVPLPAGWEMAKTSSGERYFLNHIDQTTTWQDPRKAM (domain or fragment, human, UniProt P46937 163-206, looked up) [YAP WW1 domain Q186E]"

# Target: the molecule itself
# Assay: native MS
row,Binder,stoichiometry N
1,B2,2 and 3

# Target: the molecule itself
# Assay: NMR
row,Binder,stoichiometry N
1,"SPELPEGYEQRTTVQGQVYFLHTQTGVSTWHDPRIPRD (domain or fragment, human, UniProt Q9HCE7-2 233-270, looked up) [Smurf1 WW1 domain (residues 233-270)]",2

# Target: T1, Smad7 PY peptide Ac-ELESPPPPYSRYPMD-NH2 …
# Assay: ITC
# Remark: another data set of the same source
stoichiometry N,Kd [µM],fold weaker dissociation constant than YAP WW1 [fold],Binder
1,–,–,B10
1,4.1,–,B11
1,4.1 ± 0.6,–,"DELGPLPPGWEVRSTVSGRIYFVDHNNRTTQFTDPRLH (domain or fragment, human, UniProt Q9HCE7-2 277-314, looked up) [Smurf1 WW2 domain (residues 277-314)]"
1,–,–,GPLPPGWEERIHLDGRTFYIDHNSKITQWEDPRL (domain or fragment) [Nedd4L WW4 domain]
1,–,–,B12
1,9.8 ± 0.9,–,B13
1,–,–,B14
0.7,1.7 ± 0.3,–,B1
1,–,–,B15
–,1.7 ± 0.3,–,B2
2 equivalents of peptide per protein,–,–,B16
–,–,9,"SASGPLPDGWEQAMTQDGEIYYINHKNKTTSWLDPRLDPR (domain or fragment, human, UniProt P46937 227-266, looked up) [YAP WW2 domain (residues 227-266)]"
1,–,–,SFLPPGWEMRIAPNGRPFFIDHNTKTTTWEDPRL (domain or fragment) [Nedd4L WW3 domain]
–,6.9 ± 0.28,–,"SSFEIPDDVPLPAGWEMAKTSSGQRYFLNHIDQTTTWQDPRKAM (domain or fragment, human, UniProt P46937 163-206, looked up) [YAP WW1 domain (residues 163-206)]"
